Assay results published in publication PMC7394560, “Post-replicative pairing of sister ter regions in Escherichia coli involves multiple activities of MatP” (Nature Communications, 2020).

How the values were obtained:
MatP [1] = target: T1, MatP (Escherichia coli, UniProt P0A8N0 1-150); assay: pull-down; conditions: EMSA: 10 mM Tris pH 7.5, 125 mM NaCl, 2.5 mM MgCl2, 0.5 mM DTT, 5% glycerol, 1 uM DNA, 0.25 ug poly(dI-dC), 30 C; pull-down: 20 mM Tris pH 7.5, 1 mM MgCl2 …
T1 sequence: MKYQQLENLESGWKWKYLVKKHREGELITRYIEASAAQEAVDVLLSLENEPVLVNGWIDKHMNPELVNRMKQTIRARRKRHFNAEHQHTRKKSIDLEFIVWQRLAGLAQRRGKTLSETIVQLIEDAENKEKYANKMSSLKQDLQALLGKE

[2] = target: the molecule itself; assay: native gel or EMSA; 41 bp matS DNA (1 µM) with 3 µM protein; 10 mM Tris pH 7.5, 125 mM NaCl, 2.5 mM MgCl2, 0.5 mM DTT, 5% glycerol, poly(dI-dC); 30 °C for 30 min; 5% native TGE-PAGE; oligomer size on DNA inferred from the mobility of the complexes against theoretical masses
MatPΔ20 untagged = target: T2, MatPΔ20 untagged (Escherichia coli, UniProt P0A8N0 1-130); assay: EMSA; equivalent efficiency to MatP; EMSA: 10 mM Tris pH 7.5, 125 mM NaCl, 2.5 mM MgCl2, 0.5 mM DTT, 5% glycerol, 1 uM DNA, 0.25 ug poly(dI-dC), 30 C; pull-down: 20 mM Tris pH 7.5, 1 mM MgCl2, 150; conditions: protein: recombinant; tags: none; chain copies: 2; label: 5' Cy3 on strand 1; blunt
T2 sequence: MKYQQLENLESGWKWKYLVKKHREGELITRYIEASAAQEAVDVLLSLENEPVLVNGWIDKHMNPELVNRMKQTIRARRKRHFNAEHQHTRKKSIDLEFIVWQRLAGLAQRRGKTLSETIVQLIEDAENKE

MatPΔ20-His = target: T3, MatPΔ20-His (Escherichia coli, UniProt P0A8N0 1-130); assay: EMSA; equivalent efficiency to MatP; faster-migrating complex; EMSA: 10 mM Tris pH 7.5, 125 mM NaCl, 2.5 mM MgCl2, 0.5 mM DTT, 5% glycerol, 1 uM DNA, 0.25 ug poly(dI-dC), 30 C; pull-down: 20 mM Tris pH 7.5, 1 mM MgCl2, 150; conditions: protein: recombinant; tags: His tag (MW 32 kDa with tag); chain copies: 2; label: 5' Cy3 on strand 1; blunt
T3 sequence: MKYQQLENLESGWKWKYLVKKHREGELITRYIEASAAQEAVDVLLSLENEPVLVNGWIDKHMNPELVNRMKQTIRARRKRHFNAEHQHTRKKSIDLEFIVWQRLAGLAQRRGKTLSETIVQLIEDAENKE

MatP [3] = target: T1, MatP; assay: EMSA; 3 uM MatP, 2.5 mM Mg2+, poly(dI-dC); proposed tetramer; titration 0.2-2 uM in Suppl. Fig. 7a,b; EMSA: 10 mM Tris pH 7.5, 125 mM NaCl, 2.5 mM MgCl2, 0.5 mM DTT, 5% glycerol, 1 uM DNA, 0.25 ug poly(dI-dC), 30 C; pull-down: 20 mM Tris pH 7.5, 1 mM MgCl2, 150; conditions: protein: recombinant; MW 21 kDa); chain copies: 4; label: 5' Cy3 on strand 1; blunt

DNAf(2matS)
binding signal (% DNAf recovered) (MatP [1]): 63

B1: MatP (natural protein, E. coli, UniProt P0A8N0 1-150, looked up)
chain: MKYQQLENLESGWKWKYLVKKHREGELITRYIEASAAQEAVDVLLSLENEPVLVNGWIDKHMNPELVNRMKQTIRARRKRHFNAEHQHTRKKSIDLEFIVWQRLAGLAQRRGKTLSETIVQLIEDAENKEKYANKMSSLKQDLQALLGKE
notes: MatP, macrodomain Ter protein of Escherichia coli; theoretical mass printed as 21 kDa; also called MatP wt; source: E. coli BL21DE3 (pET15b containing matP), purified (heparin column)
stoichiometry N [2]: 4

B2: his-tagged MatPΔ20 (domain or fragment, E. coli, UniProt P0A8N0 1-130, looked up)
chain: MKYQQLENLESGWKWKYLVKKHREGELITRYIEASAAQEAVDVLLSLENEPVLVNGWIDKHMNPELVNRMKQTIRARRKRHFNAEHQHTRKKSIDLEFIVWQRLAGLAQRRGKTLSETIVQLIEDAENKE
notes: MatP of Escherichia coli lacking the last 20 C-terminal residues; theoretical mass of the tagged protein printed as 32 kDa; The printed 32 kDa ('twice bigger' than MatP) is far more than a His tag adds to about 130 residues; also called MatPΔ20-tag; source: E. coli BL21DE3, purified (HisTrap column)
stoichiometry N [2]: 2

B3: untagged MatPΔ20 (domain or fragment, E. coli, UniProt P0A8N0 1-130, looked up)
chain: MKYQQLENLESGWKWKYLVKKHREGELITRYIEASAAQEAVDVLLSLENEPVLVNGWIDKHMNPELVNRMKQTIRARRKRHFNAEHQHTRKKSIDLEFIVWQRLAGLAQRRGKTLSETIVQLIEDAENKE
notes: MatP of Escherichia coli lacking the last 20 C-terminal residues; theoretical mass printed as 18 kDa; source: E. coli BL21DE3 (pET15b containing matPΔ20), purified (heparin column)
stoichiometry N [2]: 2

B4: matS41 (dsDNA)
DNA 1: AAGTACGGTAAAAGGTGACAGTGTCACTTTCATTGTTGGTA
DNA 2: TACCAACAATGAAAGTGACACTGTCACCTTTTACCGTACTT
binding result (MatPΔ20 untagged): binds | binding result (MatPΔ20-His): binds | binding result (MatP [3]): binds
